Assay results published in patent US20180237756.

Columns and labels:
[1] = molecular target: T1, TgoT DNA polymerase (V93Q D141A E143A A485L) (Thermococcus gorgonarius) (UniProt P56689); settings: does not synthesise HNA much beyond six incorporations
T1 sequence: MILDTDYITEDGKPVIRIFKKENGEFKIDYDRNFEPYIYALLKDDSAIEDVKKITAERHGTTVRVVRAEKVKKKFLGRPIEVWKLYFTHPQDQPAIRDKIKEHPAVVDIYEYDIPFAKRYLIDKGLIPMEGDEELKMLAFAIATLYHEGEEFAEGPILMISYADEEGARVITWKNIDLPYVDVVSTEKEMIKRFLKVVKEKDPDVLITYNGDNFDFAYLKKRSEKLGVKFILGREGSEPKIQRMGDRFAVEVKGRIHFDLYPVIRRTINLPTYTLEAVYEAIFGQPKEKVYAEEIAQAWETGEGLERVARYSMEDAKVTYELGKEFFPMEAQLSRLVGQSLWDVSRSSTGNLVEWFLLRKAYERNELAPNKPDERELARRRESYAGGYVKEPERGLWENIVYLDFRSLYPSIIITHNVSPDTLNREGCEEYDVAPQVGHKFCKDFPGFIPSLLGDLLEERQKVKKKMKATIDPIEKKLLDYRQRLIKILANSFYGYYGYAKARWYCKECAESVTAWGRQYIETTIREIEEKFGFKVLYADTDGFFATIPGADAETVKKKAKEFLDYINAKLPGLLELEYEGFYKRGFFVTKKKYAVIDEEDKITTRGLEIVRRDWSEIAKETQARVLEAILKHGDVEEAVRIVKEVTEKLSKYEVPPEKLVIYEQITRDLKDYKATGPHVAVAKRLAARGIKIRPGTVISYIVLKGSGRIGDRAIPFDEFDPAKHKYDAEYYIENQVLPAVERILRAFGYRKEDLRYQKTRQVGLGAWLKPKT

[2] = tested on: TAT (trans-activator of transcription) (HIV); test: competition

| Substance | activity (hNTP incorporations) [1] | IC50 ([2]; IC50 of HNA anti-TAR aptamer T5S8-7 (binds TAR RNA) displacing TAT from immobilized miniTAR, CI95 1.3-2.8 nM) [µM] | IC50 ([2]; IC50 of RNA anti-TAR aptamer R06 (binds TAR RNA) displacing TAT from immobilized miniTAR, CI95 166-675 nM) [µM] |
| --- | --- | --- | --- |
| E. coli tRNA supE gene primer-template | 6 |  |  |
| miniTAR RNA |  | 0.0019 | 0.313 |
